The target in test [1] is Recombinant human KLK5 (Genentech) (human) (UniProt Q9Y337). Kind of test: cell-based or functional assay.
The target is the same in test [2]. Kind of test: cell-based or functional assay. The source holds these as a separate data set.

Like-named read-outs stand apart in the source and are kept apart here.

Chain of UniProt Q9Y337 (Q9Y337 67-293 limits assumed, form in doubt): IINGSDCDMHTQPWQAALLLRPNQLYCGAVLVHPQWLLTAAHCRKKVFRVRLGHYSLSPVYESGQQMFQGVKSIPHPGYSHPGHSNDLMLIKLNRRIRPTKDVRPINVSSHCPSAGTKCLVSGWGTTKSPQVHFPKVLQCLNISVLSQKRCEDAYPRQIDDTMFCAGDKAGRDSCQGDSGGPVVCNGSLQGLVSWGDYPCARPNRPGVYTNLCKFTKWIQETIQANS

Regarding “mAb1108 (Monoclonal Mouse IgG2b Clone #193318, R & D Systems, Minneapolis, MN) (antibody)”, in test [1], the IC50, LC/MS assay of KLK5 (0.5 nM) cleavage of pro-KLK1 worked out at 0.34 nM; the IC50, LC/MS assay of KLK5 (5 nM) cleavage of pro-KLK7 (15 nM) was determined as 1.86 nM; the direct KLK5 activity assay at 20, 10, 5 and 2.5 nM KLK5: reduction in cleavage of the fluorescent peptide substrate came to 30%; the maximum KLK5 inhibition, LC/MS assay of KLK5 (0.5 nM) cleavage of pro-KLK1 worked out at 40%.

B1: SPINK9 (I20-C86.C22S.H48R.M49E)-Fc (Fc fusion, not shown: a dimerising Fc or GST)
chain: IESAKQTKQMVDCSHYKKLPPGQQRFCHREYDPICGSDGKTYKNDCFFCSKVKKTDGTLKFVHFGKC
Consider B1, for which, in test [2], the IC50, LC/MS assay of KLK5 (0.5 nM) cleavage of pro-KLK1 is 0.58 nM and the IC50, LC/MS assay of KLK5 (5 nM) cleavage of pro-KLK7 (15 nM) is 1.13 nM.

Values taken from US20230416825A1.
